Reference: patent EP4386000A1 (Nanjing Novoacine Bio-Technology Co., Ltd., dated 2024)
Read-outs that look alike come from different tables or passages of the source.

T1: human CD25 (NP_000408.1) (Met 1-Cys 213) C-terminally fused with 6-histidine tag (human, UniProt P01589 22-213)
T1 construct: range 1-213; Expressed in CHO-K1 cells; also called human CD25-his
T1 sequence: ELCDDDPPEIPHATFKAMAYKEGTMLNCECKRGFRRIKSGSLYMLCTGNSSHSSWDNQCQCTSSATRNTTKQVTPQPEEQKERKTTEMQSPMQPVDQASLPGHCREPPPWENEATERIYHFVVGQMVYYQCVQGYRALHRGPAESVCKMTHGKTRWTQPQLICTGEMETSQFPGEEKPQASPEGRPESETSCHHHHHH

T2: human CD25 on CHO-K1/hCD25 cells (human, UniProt P01589 22-272)
T2 construct: whole, on cells; The construct of the cell line is not described
T2 sequence (looked up): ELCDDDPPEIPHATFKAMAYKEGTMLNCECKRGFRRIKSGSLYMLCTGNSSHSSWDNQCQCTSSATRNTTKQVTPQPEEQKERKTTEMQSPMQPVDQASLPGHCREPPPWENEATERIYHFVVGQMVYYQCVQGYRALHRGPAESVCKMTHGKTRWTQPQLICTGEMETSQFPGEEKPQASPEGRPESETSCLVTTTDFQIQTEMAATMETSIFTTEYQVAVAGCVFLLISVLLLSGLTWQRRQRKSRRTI

T3: CD25 on CD4+CD25+ Treg cells isolated from human PBMCs (human, UniProt P01589 22-272)
T3 sequence (looked up): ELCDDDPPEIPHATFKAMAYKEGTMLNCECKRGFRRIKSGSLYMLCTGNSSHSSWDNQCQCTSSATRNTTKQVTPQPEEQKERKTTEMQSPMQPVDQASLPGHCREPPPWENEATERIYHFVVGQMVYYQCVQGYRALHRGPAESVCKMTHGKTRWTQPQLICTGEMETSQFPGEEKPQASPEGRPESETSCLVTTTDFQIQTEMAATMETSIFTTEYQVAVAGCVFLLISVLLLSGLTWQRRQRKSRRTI

T4: Mouse CD25-his (UniProtKB-P01590, Met1-Lys213) (mouse, UniProt P01590 22-213)
T4 construct: range 1-213; Range begins at Met1 (includes the signal peptide); not shown: his tag
T4 sequence (looked up): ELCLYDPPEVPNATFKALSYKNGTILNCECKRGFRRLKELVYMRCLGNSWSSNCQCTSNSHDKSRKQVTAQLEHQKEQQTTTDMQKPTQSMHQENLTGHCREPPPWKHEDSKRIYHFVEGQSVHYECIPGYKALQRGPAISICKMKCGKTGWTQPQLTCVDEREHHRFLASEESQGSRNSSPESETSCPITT


Assays:
[1] = target: T5, cyno CD25-his (NCBI-H6WS54, Met1-Arg213) (cyno); assay: ELISA, cyno CD25-his coated
T5 construct: range 1-213; Range begins at Met1 (includes the signal peptide)

[2] = target: T1, human CD25 (NP_000408.1) (Met 1-Cys …); assay: ELISA, human CD25-his coated
[3] = target: T1, human CD25 (NP_000408.1) (Met 1-Cys …); assay: SPR (BIAcore X100), human CD25-his captured by anti-histidine antibody, antibody as analyte, 1:1 model
[4] = target: T2, human CD25 on CHO-K1/hCD25 cells; assay: flow cytometry on CHO-K1/hCD25 cells
[5] = target: T3, CD25 on CD4+CD25+ Treg cells isolated …; assay: cell-based or functional assay
[6] = target: T4, Mouse CD25-his (UniProtKB-P01590, …); assay: ELISA, mouse CD25-his coated
[7] = target: T1, human CD25 (NP_000408.1) (Met 1-Cys …); assay: SPR (BIAcore X100), human CD25-his captured by anti-histidine antibody, antibody as analyte, 1:1 model; remark: listed apart in the source

EC50 [1] [µg/mL]	EC50 [2] [µg/mL]	Relative activity (%) compared with 686 [2] [%]	Kd [3] [nM]	koff [3] [s⁻¹]	kon [3] [M⁻¹ s⁻¹]	EC50 [4] [µg/mL]	Relative activity (%) compared with 686 [4] [%]	Kd [7] [nM]	koff [7] [s⁻¹]	kon [7] [M⁻¹ s⁻¹]	Binder	EC50, killing Tregs in vitro (ADCC reporter, jurkat/CD16a/NFAT-luc) [5] [µg/mL]	Relative activity (%) compared with 686, killing Tregs in vitro [5] [%]	binding result [6]
0.0601	0.144	72.2	9.44	0.0121	1.28e+06	0.00114	107	–	–	–	chimeric antibody 2046-61H1L2 (antibody, human IgG1, kappa, Chimeric, human IgG1/kappa; also called 2046-61ix) heavy: not shown light: DVVMTQTPLSLPVSLGDQASISCRSSQSLVHSNGNTYLHWNLQKPGQSPKLLIYKVSNRFSGVPDRFSGSGSGTDFTLKISRVEAEDLGVYFCSQSTHVPLTFSAGTKLELKRTVAAPSVFIFPPSDEQLKSGTASVVCLLNNFYPREAKVQWKVDNALQSGNSQESVTEQDSKDSTYSLSSTLTLSKADYEKHKVYACEVTHQGLSSPVTKSFNRGEC	34.1	380	no binding (tested: starting at 100 ng/mL)
0.0594	0.105	99	4.27	0.00318	745000	0.00192	63.8	–	–	–	chimeric antibody 2046-2H1L1 (antibody, human IgG1, kappa, V domains shown, Chimeric (murine V, human IgG1/kappa); also called 2046-2ix) VH: DVQLQESGPGLVKPSQSLSLTCTVTGYSITSDYAWNWIRHFPGNKLEWMGYITYSGSTVYNPSLKSRISITRDTSKNHFFLQLNSVTTEDTATYYCARWLLQIYYAMDYWGQGTSVTVSS VL: DVVMTQTPLSLPVSLGDQASISCRSSQSLVHSNGNTYLHWYLQKPGQSPKLLIYKVSNRFSGVPDRFSGSGSGTDFTLKISRVEAEDLGVYFCSQSTHVPLTFGAGTKLELKR	22.2	584	no binding (tested: starting at 100 ng/mL)
–	–	–	–	–	–	–	–	1.43	0.000498	348000	humanized antibody 2047-3H1L2 (antibody, human IgG1, kappa, V domains shown) VH: EVQLVQSGAEVKKPGATVKISCKTSGYTFTDYVISWVQQAPGKGLEWMGEIYPGSGSTYYNEKFKGRVTITADISTNTAYMELSSLRSEDTAVYYCASINFDYWGQGTLVTVSS VL: EIVMTQSPATLSLSPGERATLSCRASQSISDYLHWYQQKPGQAPRLLIKYASQSISGIPARFSGSGSGSDFTLTISSLQPEDVAVYYCQSGHSFPYTFGQGTKLEIKR	–	–	–

Second part, the binder before the results:

Binder	EC50 [1] [µg/mL]	EC50 [2] [µg/mL]	Relative activity (%) compared with 686 [2] [%]	Kd [3] [nM]	koff [3] [s⁻¹]	kon [3] [M⁻¹ s⁻¹]	EC50 [4] [µg/mL]	Relative activity (%) compared with 686 [4] [%]	Kd [7] [nM]	koff [7] [s⁻¹]	kon [7] [M⁻¹ s⁻¹]	EC50, killing Tregs in vitro (ADCC reporter, jurkat/CD16a/NFAT-luc) [5] [µg/mL]	Relative activity (%) compared with 686, killing Tregs in vitro [5] [%]	binding result [6]
chimeric antibody 2046-111H2L1 (antibody, human IgG1, kappa, V domains shown, Chimeric, human IgG1/kappa) VH: DVQLQESGPGLVKPSQSLSLTCTVTGHSITSDYAWNWIRQFPGNKLEWMGYISYSGSTIYNPSLKSRISITRDTSKNQFFLQLNSVTTEDTATYYCARWLLQNYYAMDYWGQGTSVTVSS VL: DVVMTQTPLSLPVSLGDQASISCRSSQSLVHSNGNTYLHWYLRKPGQSPKLLIYKVSNRFSGVPDRFSGSGSGTDFTLKISRVEAEDLGVYFCSQSTHVPLTFGAGTKLELKR	0.0447	0.0989	105	0.819	0.000431	526000	0.00109	132	–	–	–	89.8	145	no binding (tested: starting at 100 ng/mL)
chimeric antibody 2046-18H1L1 (antibody, human IgG1, kappa, V domains shown, Chimeric, human IgG1/kappa; also called 2046-18ix) VH: DVQLQESGPGLVKPSQSLSLTCTVTGYSITSDYAWNWIRQFPGNKLEWMGYISYSGITIYNPSLKSRISITRDTSKNQFFLQLNSVTTEDTATYYCARWLLQIYYAMDYWGQGTSVTVSS VL: DVVMTQTPLSLPVSLGDQASISCSSSQSLVHSNGNTYLHWYLHKPGQSPKLLIYKVSNRFSGVPDRFSGSGSGTDFTLKISRVEAEDLGVYFCSQSTHVPLTFGAGTKLELKR	0.0483	0.102	102	0.703	0.000326	463000	0.00171	110	–	–	–	31.7	410	no binding (tested: starting at 100 ng/mL)
chimeric antibody 2046-24H2L1 (antibody, human IgG1, kappa, V domains shown, Chimeric, human IgG1/kappa; also called 2046-24ix) VH: DVQLQESGPGLVKPSQSLSLTCTVTGYSITSDYAWNWIRQFPGNKLEWMGYISYGGTTIYNPSLKSRISITRDTSKNQFFLQLNSVTTEDTATYYCARWLLQNYYAMDYWGQGTSVTVSS VL: DVVMTQTPLSLPVSLGDQASISCRSSQSLVHSNGNTYLHWYLQKPGQSPKVLIYKVSNRFSGVPDRFSGSGSGTDFTLKISRVEAEDLGVYFCSQNTHVPLTFGAGTKLELKR	0.0424	0.106	98.2	7.63	0.00349	458000	0.00143	131	–	–	–	26.5	491	no binding (tested: starting at 100 ng/mL)
chimeric antibody 2047-3H8L2 (antibody, human IgG1, kappa, V domains shown, Chimeric, human IgG1/kappa; also called 2047-3ix) VH: QVQLKQSGAELVKPGASVKMSCKTSGYTFTDYVISWVKQRTGQGLEWIGEIYPGSGSTYYNEKFKGKATLTADISSNTAYMQLSSLTSEDSAVYFCASINFDYWGHGTTLTVSS VL: DIVMTQSPATLSVTPGDRVSLSCRASQSISDYLHWYQQKSHESPRLLIKYASQSISGIPSRFSGSGSGSDFTLSINSVEPEDVGVYYCQNGHSFPYTFGGGTKLEIKR	0.189	0.111	93.6	0.308	7.26e-05	236000	0.00143	205	–	–	–	857	15.2	no binding (tested: starting at 100 ng/mL)
humanized antibody 2046-111H1L1-m2 (antibody, human IgG1, kappa, V domains shown) VH: EVQLQESGPGLVKPSQTLSLTCTVSGHSITSDYAWNWIRQPPGKGLEWIGYISYSGSTIYNPSLKSRVTISRDTSKNQFSLKLSSVTAADTAVYYCARWLLQNYYAMDYWGQGTLVTVSS VL: EIVLTQSPGTLSLSPGERATLSCRSSQSLVHSNGNTYLHWYQQKPGQAPRLLIYKVSNRFSGIPDRFSGSGSGTDFTLTISRLEPEDFAVYYCSQSTHVPLTFGQGTKLEIKR	–	–	–	–	–	–	–	–	6.35	0.00414	652000	–	–	–
humanized antibody 2046-36H1L1 (antibody, human IgG1, kappa, V domains shown) VH: EIQLVQSGSELKKPGASVKVSCKASGYTFTTAGMQWVRQAPGQGLEWMGWINTHSGVPKYAEDFKGRFVFSLDTSVSTAYLQISSLKAEDTAVYYCASDYAFGYWGQGTLVTVSS VL: DVVMTQSPLSLPVTLGQPASISCKSSQSLLYSNGKTYLYWLQQRPGQSPRRLIYLVSKLDSGVPDRFSGSGSGTDFTLKISRVEAEDLGVYYCVQGTHFPYTFGQGTKLEIKR	–	–	–	–	–	–	–	–	0.994	0.00394	3.96e+06	–	–	–
humanized antibody 2047-10H2L2 (antibody, human IgG1, kappa, V domains shown) VH: EVQLVQSGAEVKKPGATVKISCKGSGYTFTDYAMHWVQQAPGKGLEWMGVISTYSGNTNYNQKFKGRVTITVDKSTSTAYMELSSLRSEDTAVYYCARSYGNYPFDYWGQGTLVTVSS VL: DIQMTQSPSSLSASVGDRVTITCKASQDITSYLSWFQQKPGKAPKTLIYRANRLVDGVPSRFSGSGSGQDYTLTISSLQPEDMATYYCLQYDEFPYTFGQGTKLEIKR	–	–	–	–	–	–	–	–	4.46	0.00205	461000	–	–	–
